First the molecules themselves.
B1: GpH7-B3 variant Y296_11K/GpL16-k0 (antibody, human IgG1, kappa)
heavy: not shown
light: DIVMTQSPLSLPVTPGEPASISCQASESLVHSNRNTYLHWYLQKPGQSPQLLIYKVSNRFSGVPDRFSGSGSGTDFTLKISRVEAEDVGVYYCSQNTHVPPTFGQGTKVEIERTVAAPSVFIFPPSDEQLKSGTASVVCLLNNFYPREAKVQWKVDNALQSGNSQESVTEQDSKDSTYSLSSTLTLSKADYEKHKVYACEVTHQGLSSPVTKSFNRGEC
notes: homodimerized IgG1; mutation in both H chains; also called Ho Ab
B2: GpH7-A5/GpH7-B3 variant Y300_01G/GpL16-k0 (antibody, human IgG1, kappa)
heavy 1: not shown
heavy 2: not shown
light: B1 light
notes: heterodimerized IgG1; mutation in one H chain only; also called He Ab
B3: GpH7-B3 variant Y300_09D/GpL16-k0 (antibody, human IgG1, kappa)
heavy: not shown
light: B1 light
notes: as for B1
B4: GpH7-B3 variant Y300_02A/GpL16-k0 (antibody, human IgG1, kappa)
heavy: not shown
light: B1 light
notes: as for B1
B5: GpH7-B3 variant Y300_19Q/GpL16-k0 (antibody, human IgG1, kappa)
heavy: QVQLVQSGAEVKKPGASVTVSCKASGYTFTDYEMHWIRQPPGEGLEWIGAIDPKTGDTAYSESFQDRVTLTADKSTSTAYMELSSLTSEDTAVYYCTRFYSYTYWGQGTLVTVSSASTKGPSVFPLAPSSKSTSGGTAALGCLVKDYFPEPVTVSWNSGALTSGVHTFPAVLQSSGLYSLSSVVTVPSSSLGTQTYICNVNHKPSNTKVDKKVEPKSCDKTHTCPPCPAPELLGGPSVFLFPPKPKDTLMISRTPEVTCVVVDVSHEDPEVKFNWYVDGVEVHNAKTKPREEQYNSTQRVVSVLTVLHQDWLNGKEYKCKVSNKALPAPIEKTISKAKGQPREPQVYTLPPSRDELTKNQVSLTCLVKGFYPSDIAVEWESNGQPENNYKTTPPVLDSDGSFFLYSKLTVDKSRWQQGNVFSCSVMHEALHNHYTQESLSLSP
light: B1 light
notes: as for B1
B6: GpH7-B3 variant Y300_13S/GpL16-k0 (antibody, human IgG1, kappa)
heavy: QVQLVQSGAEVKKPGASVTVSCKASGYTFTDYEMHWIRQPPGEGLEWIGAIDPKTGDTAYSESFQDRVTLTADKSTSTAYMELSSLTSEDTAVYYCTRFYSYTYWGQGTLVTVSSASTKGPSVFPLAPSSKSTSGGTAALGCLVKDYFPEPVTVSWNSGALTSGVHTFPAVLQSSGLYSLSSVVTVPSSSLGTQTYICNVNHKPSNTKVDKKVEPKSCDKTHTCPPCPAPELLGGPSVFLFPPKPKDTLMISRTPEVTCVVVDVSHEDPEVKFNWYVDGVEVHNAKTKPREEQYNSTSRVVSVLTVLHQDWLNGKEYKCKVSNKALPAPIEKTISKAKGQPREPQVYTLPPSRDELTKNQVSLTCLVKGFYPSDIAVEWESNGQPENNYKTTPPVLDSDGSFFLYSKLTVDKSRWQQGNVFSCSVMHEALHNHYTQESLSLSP
light: B1 light
notes: as for B1
B7: GpH7-B3 variant Y300_06M/GpL16-k0 (antibody, human IgG1, kappa)
heavy: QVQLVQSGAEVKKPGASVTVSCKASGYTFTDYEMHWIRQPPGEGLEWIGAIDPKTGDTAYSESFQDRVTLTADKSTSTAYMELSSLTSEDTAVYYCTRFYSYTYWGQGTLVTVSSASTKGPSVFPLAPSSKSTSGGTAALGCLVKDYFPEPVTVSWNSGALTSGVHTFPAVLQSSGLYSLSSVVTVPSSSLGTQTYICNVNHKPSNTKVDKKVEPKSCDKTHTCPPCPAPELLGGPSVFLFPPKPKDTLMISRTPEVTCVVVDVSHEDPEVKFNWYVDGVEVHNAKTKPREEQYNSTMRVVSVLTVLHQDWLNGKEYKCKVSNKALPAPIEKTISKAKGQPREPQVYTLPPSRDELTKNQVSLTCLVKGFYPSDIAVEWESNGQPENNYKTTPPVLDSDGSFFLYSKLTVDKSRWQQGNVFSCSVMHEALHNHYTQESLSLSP
light: B1 light
notes: as for B1
B8: GpH7-B3 variant Y296_14T/GpL16-k0 (antibody, human IgG1, kappa)
heavy: not shown
light: B1 light
notes: as for B1
B9: GpH7-B3 variant Y296_12R/GpL16-k0 (antibody, human IgG1, kappa)
heavy: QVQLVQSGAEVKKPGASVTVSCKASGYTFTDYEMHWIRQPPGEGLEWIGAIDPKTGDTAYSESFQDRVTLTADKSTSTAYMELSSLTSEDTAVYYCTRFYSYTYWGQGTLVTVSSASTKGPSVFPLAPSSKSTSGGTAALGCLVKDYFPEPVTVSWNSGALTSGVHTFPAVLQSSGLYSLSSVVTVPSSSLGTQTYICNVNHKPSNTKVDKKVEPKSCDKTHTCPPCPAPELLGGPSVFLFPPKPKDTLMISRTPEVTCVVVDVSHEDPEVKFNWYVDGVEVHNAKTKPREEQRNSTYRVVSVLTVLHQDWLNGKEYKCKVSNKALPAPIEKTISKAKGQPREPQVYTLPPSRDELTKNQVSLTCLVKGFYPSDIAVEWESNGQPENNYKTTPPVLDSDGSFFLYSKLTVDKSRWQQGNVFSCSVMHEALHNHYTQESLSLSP
light: B1 light
notes: as for B1
B10: GpH7-B3 variant Y296_16H/GpL16-k0 (antibody, human IgG1, kappa)
heavy: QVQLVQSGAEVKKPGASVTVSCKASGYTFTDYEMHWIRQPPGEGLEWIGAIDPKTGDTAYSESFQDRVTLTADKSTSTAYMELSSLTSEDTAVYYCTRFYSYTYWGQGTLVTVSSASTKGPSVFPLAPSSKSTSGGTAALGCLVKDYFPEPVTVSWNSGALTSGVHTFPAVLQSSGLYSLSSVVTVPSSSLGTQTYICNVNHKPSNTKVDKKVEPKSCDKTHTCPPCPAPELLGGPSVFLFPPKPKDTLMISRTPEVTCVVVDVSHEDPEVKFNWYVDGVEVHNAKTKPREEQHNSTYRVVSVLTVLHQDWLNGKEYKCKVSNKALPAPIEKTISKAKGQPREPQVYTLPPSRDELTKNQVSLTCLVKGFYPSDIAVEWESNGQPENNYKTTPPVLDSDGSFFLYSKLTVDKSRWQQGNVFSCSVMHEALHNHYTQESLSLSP
light: B1 light
notes: as for B1
B11: GpH7-B3 variant Y296_20W/GpL16-k0 (antibody, human IgG1, kappa)
heavy: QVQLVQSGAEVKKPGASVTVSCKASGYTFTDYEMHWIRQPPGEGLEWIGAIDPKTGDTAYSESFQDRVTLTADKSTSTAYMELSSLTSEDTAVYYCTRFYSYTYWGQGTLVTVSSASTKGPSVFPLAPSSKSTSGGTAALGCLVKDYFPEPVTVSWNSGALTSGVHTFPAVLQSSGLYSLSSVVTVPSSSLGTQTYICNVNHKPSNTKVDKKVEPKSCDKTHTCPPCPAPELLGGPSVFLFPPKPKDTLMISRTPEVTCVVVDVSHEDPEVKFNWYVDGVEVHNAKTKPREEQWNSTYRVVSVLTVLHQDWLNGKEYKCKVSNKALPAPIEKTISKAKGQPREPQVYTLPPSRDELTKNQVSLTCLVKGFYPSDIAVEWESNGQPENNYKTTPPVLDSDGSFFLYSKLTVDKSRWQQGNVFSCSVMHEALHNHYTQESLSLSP
light: B1 light
notes: as for B1
B12: GpH7-B3 variant Y296_18N/GpL16-k0 (antibody, human IgG1, kappa)
heavy: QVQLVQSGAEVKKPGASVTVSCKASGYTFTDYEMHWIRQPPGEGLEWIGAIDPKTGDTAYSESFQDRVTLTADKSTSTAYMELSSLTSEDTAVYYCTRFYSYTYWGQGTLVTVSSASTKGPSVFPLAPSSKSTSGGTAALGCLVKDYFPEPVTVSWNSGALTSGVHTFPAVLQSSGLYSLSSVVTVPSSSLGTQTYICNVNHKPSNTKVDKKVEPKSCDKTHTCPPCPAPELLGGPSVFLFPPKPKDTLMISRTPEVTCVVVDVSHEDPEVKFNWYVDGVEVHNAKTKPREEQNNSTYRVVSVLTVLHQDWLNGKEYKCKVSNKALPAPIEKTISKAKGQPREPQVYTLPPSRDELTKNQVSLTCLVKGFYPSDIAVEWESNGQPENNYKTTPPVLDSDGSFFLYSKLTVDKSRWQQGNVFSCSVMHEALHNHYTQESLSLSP
light: B1 light
notes: as for B1
B13: GpH7-B3 variant Y300_03V/GpL16-k0 (antibody, human IgG1, kappa)
heavy: not shown
light: B1 light
notes: as for B1
B14: GpH7-B3 variant Y300_11K/GpL16-k0 (antibody, human IgG1, kappa)
heavy: not shown
light: B1 light
notes: as for B1
B15: GpH7-B3 variant Y300_08L/GpL16-k0 (antibody, human IgG1, kappa)
heavy: not shown
light: B1 light
notes: as for B1
B16: GpH7-B3 variant Y300_20W/GpL16-k0 (antibody, human IgG1, kappa)
heavy: not shown
light: B1 light
notes: as for B1
B17: GpH7-B3 variant Y296_13S/GpL16-k0 (antibody, human IgG1, kappa)
heavy: not shown
light: B1 light
notes: as for B1
B18: GpH7-B3 variant Y296_19Q/GpL16-k0 (antibody, human IgG1, kappa)
heavy: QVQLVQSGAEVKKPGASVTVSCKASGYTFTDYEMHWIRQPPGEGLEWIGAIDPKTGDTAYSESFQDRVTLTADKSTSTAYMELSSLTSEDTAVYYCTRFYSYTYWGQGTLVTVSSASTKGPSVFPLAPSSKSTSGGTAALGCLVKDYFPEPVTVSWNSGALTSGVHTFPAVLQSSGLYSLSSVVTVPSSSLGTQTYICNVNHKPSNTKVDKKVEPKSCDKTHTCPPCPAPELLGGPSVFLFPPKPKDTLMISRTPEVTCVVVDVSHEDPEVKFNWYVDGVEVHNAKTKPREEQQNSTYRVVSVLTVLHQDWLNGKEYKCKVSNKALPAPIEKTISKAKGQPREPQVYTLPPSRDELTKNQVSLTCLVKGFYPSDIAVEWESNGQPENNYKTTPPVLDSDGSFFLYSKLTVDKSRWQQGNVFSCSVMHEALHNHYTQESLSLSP
light: B1 light
notes: as for B1
B19: GpH7-B3 variant Y300_10E/GpL16-k0 (antibody, human IgG1, kappa)
heavy: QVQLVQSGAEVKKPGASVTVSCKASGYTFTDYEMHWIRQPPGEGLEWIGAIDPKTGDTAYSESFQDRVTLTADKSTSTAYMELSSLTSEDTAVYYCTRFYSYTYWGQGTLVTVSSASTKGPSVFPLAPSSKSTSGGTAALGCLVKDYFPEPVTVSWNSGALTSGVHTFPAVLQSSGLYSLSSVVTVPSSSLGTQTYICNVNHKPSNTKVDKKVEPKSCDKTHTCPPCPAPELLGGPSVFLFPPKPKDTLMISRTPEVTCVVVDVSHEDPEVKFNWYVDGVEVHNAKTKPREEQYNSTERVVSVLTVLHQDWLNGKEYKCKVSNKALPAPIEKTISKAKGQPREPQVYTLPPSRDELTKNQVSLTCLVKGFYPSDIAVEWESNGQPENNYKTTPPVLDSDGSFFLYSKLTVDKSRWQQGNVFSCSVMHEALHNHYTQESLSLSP
light: B1 light
notes: as for B1
B20: GpH7-B3 variant Y300_14T/GpL16-k0 (antibody, human IgG1, kappa)
heavy: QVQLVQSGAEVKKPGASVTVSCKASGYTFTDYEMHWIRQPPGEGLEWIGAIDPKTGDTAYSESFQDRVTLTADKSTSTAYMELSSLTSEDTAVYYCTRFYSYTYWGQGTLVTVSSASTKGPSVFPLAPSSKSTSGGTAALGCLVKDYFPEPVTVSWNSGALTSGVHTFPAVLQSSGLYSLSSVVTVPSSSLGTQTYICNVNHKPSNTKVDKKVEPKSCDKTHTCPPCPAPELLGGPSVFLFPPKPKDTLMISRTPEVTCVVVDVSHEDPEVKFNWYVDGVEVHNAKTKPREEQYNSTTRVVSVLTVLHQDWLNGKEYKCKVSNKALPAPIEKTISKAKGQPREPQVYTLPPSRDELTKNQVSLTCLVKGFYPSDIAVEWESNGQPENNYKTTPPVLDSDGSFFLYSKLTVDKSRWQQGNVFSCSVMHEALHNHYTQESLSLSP
light: B1 light
notes: as for B1
B21: GpH7-A5/GpH7-B3 variant T335_16H/GpL16-k0 (antibody, human IgG1, kappa)
heavy 1: not shown
heavy 2: not shown
light: B1 light
notes: as for B2

In the assay the target is T1, FcγRIa (human, UniProt P12314 16-292).
T1 construct: extracellular domain; also called FcgRI; CD64; not shown: C-terminal His tag
T1 sequence (P12314 16-292): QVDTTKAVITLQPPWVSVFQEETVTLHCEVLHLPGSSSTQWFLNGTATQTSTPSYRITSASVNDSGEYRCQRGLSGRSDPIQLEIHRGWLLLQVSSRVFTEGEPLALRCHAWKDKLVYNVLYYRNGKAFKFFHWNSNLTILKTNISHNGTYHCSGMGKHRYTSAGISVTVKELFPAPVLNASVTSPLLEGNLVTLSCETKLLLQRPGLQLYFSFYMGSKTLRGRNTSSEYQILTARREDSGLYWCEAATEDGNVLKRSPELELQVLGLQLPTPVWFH
Briefly: SPR (Biacore), antibody captured on antigen peptide chip, FcγRIa as analyte; relative binding amount. On the procedure:
Analysis of interaction between objective antibody and the FcγR was carried out using Biacore T100 (GE Healthcare). HBS-EP+ (GE Healthcare) was used as the running buffer, and the measurement temperature was set to 25° C. Chips produced by immobilizing the antigen peptide by the amine coupling method to a Series S Sencor Chip CM5 (GE Healthcare), or alternatively, chips produced by allowing preliminarily biotinylated antigen peptides to interact with and immobilize onto a Series S Sensor Chip SA (certified) (GE Healthcare) were used. Antibodies of interest were captured onto an antigen peptide-immobilized chip, and allowed to interact to each FcγR diluted with running buffer. To regenerate and repeatedly use the chip, the antibodies captured on the chip were washed off by reacting 10 mM glycine-HCl, pH 1.5.
Consider B1, for which the Ho/Con_1a is 102 % of control (GpH7-B3/GpL16-k0 = 100).
Take B2: the He/Con_1a is 116 % of control (GpH7-A5/GpH7-B3/GpL16-k0 = 100).
As for B3, the Ho/Con_1a was 111 % of control (GpH7-B3/GpL16-k0 = 100).
Consider B4, for which the Ho/Con_1a is 110 % of control (GpH7-B3/GpL16-k0 = 100).
B5: the Ho/Con_1a was 110 % of control (GpH7-B3/GpL16-k0 = 100).
With B6, the Ho/Con_1a was 110 % of control (GpH7-B3/GpL16-k0 = 100).
Turning to B7, the Ho/Con_1a was 111 % of control (GpH7-B3/GpL16-k0 = 100).
Regarding B8, the Ho/Con_1a was 105 % of control (GpH7-B3/GpL16-k0 = 100).
For B9, the Ho/Con_1a was 103 % of control (GpH7-B3/GpL16-k0 = 100).
With B10, the Ho/Con_1a is 105 % of control (GpH7-B3/GpL16-k0 = 100).
Same read-out and setting: with B11 the figure was 106 % of control (GpH7-B3/GpL16-k0 = 100); with B12, 105 % of control (GpH7-B3/GpL16-k0 = 100); with B13, 112 % of control (GpH7-B3/GpL16-k0 = 100).
The same measure, in the same setting: to B14 belongs 101 % of control (GpH7-B3/GpL16-k0 = 100); to B15, 109 % of control (GpH7-B3/GpL16-k0 = 100); to B16, 110 % of control (GpH7-B3/GpL16-k0 = 100).
On to B17, for which the Ho/Con_1a is 105 % of control (GpH7-B3/GpL16-k0 = 100).
Regarding B18, the Ho/Con_1a was 104 % of control (GpH7-B3/GpL16-k0 = 100).
The same measure, in the same setting: with B19 the figure was 111 % of control (GpH7-B3/GpL16-k0 = 100).
On the same count and under the same terms, to B20 belongs 110 % of control (GpH7-B3/GpL16-k0 = 100).
For the molecule B21, the He/Con_1a is 106 % of control (GpH7-A5/GpH7-B3/GpL16-k0 = 100).

For the origin of these results see patent US20180155451A1 (published 2018).
